In article PMC6827302 (2019):

Target: unlabeled F-actin from rabbit skeletal muscle (rabbit, UniProt P68135 1-377)

Kd	Binder
32 µM	human cMyBP-C N-terminal domains C0–C1 (domain or fragment) MPEPGKKPVSAFSKKPRSVEVAAGSPAVFEAETERAGVKVRWQRGGSDISASNKYGLATEGTRHTLTVREVGPADQGSYAVIAGSSKVKFDLKVIEAEKAEPMLAPAPAPAEATGAPGEAPAPAAELGESAPSPKGSSSAALNGPTPGAPDDPIGLFVMRPQDGEVTVGGSITFSARVAGASLLKPPVVKWFKGKWVDLSSKVGQHLQLHDSYDRASKVYLFELHITDAQPAFTGSYRCEVSTKDKFDCSNFNLTV
7 µM	human cMyBP-C C0–C2 3SD (S275D, S284D, S304D) (domain or fragment) MPEPGKKPVSAFSKKPRSVEVAAGSPAVFEAETERAGVKVRWQRGGSDISASNKYGLATEGTRHTLTVREVGPADQGSYAVIAGSSKVKFDLKVIEAEKAEPMLAPAPAPAEATGAPGEAPAPAAELGESAPSPKGSSSAALNGPTPGAPDDPIGLFVMRPQDGEVTVGGSITFSARVAGASLLKPPVVKWFKGKWVDLSSKVGQHLQLHDSYDRASKVYLFELHITDAQPAFTGSYRCEVSTKDKFDCSNFNLTVHEAMGTGDLDLLSAFRRTDLAGGGRRIDDSHEDTGILDFSSLLKKRDDFRTPRDSKLEAPAEEDVWEILRQAPPSEYERIAFQYGVTDLRGMLKRLKGMRRDEKKSTAFQKKLEPAYQVSKGHKIRLTVELADHDAEVKWLKNGQEIQMSGSKYIFESIGAKRTLTISQCSLADDAAYQCVVGGEKCSTELFVKEPPVLITRPLEDQLVMVGQRVEFECEVSEEGAQVKWLKDGVELTREETFKYRFKKDGQRHHLIINEAMLEDAGHYALCTSGGQALAELIVQEKKLEVYQSIADLMVGAKDQAVFKCEVSDENVRGVWLKNGKELVPDSRIKVSHIGRVHKLTIDDVTPADEADYSFVPEGFACNLSAKLHFMEVKIDFVPRQEPPKIHLDCPGRIPDTIVVVAGNKLRLDVPISGDPAPTVIWQKAITQGNKAPARPAPDAPEDTGDSDEWVFDKKLLCETEGRVRVETTKDRSIFTVEGAEKEDEGVYTVTVKNPVGEDQVNLTVKVIDVPDAPAAPKISNVGEDSCTVQWEPPAYDGGQPILGYILERKKKKSYRWMRLNFDLIQELSHEARRMIEGVVYEMRVYAVNAIGMSRPSPASQPFMPIGPPSEPTHLAVEDVSDTTVSLKWRPPERVGAGGLDGYSVEYCPEGCSEWVAALQGLTEHTSILVKDLPTGARLLFRVRAHNMAGPGAPVTTTEPVTVQEILQRPRLQLPRHLRQTIQKKVGEPVNLLIPFQGKPRPQVTWTKEGQPLAGEEVSIRNSPTDTILFIRAARRVHSGTYQVTVRIENMEDKATLVLQVVDKPSPPQDLRVTDAWGLNVALEWKPPQDVGNTELWGYTVQKADKKTMEWFTVLEHYRRTHCVVPELIIGNGYYFRVFSQNMVGFSDRAATTKEPVFIPRPGITYEPPNYKALDFSEAPSFTQPLVNRSVIAGYTAMLCCAVRGSPKPKISWFKNGLDLGEDARFRMFSKQGVLTLEIRKPCPFDGGIYVCRATNLQGEARCECRLEVRVPQ
